Measurements published in paper PMC6289460.

System: ArdK (intact) (Escherichia coli A56-1S (plasmid pA56-1S))
Test: BLI
Settings: EMSA: 20 mM Tris pH 7.5, 100 mM KCl, 2 mM DTT, 10 mM EDTA, 50 mg/L poly(dI-dC), 20 C, 20 min, 3 fmol probe, 30 pmol protein; BLI: 1x kinetics buffer (Pall …)

Substance: 107 bp probe upstream of blaIMP-6
- Kd: 0.0293 µM
